Consider five molecules from patent US20170174733A1 (Genentech, published 2017).

Like-named read-outs stand apart in the source and are kept apart here.

As a reminder, the IC50 is the concentration at which inhibition is half-maximal. The term Kd denotes the equilibrium constant for the complex coming apart. A lower Kd goes with higher affinity.

The target in experiment [1] is T1, LRP6 E1E2 with a C-terminal Avi-tag and His6-tag (human, UniProt O75581 20-630, biotinylated (Avi-tag) where loaded on streptavidin tips; unlabeled where in solution).
T1 construct: domain: E1E2; also called LRP6 receptor fragment E1E2; biotinylated LRP6-E1E2; not shown: C-terminal Avi-tag and His6-tag
T1 sequence: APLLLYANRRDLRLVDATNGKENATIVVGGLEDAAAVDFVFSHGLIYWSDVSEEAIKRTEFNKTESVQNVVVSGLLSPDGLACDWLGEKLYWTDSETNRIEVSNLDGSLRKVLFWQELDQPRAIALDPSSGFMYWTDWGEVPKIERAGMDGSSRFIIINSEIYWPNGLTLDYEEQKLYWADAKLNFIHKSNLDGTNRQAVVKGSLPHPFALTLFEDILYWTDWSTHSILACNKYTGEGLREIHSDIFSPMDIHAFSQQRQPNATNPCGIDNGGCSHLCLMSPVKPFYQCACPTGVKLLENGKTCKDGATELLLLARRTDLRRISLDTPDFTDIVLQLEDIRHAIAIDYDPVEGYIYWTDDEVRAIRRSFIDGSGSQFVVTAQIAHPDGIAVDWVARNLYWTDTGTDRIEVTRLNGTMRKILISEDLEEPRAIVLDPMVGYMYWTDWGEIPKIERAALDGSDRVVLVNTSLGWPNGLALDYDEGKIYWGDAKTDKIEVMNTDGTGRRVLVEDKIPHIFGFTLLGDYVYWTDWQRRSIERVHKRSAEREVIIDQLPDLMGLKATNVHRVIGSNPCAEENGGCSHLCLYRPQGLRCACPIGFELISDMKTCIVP
The experiment in a line: BLI on small-scale ExiProgen protein with C-terminal Avi-tag.

The target of experiment [2] is T2, human VEGF (human, UniProt P15692 27-191). Briefly: cell-based or functional assay.
Experiment [3] concerns the target T2, human VEGF. The experiment in a line: cell-based or functional assay. This is another data set of the same source.
The target of experiment [4] is T2, human VEGF. Briefly: cell-based or functional assay. This is another data set of the same source.
Experiment [5] concerns the target T3, biotinylated VEGF165 (UniProt P15692 27-191).
T3 construct: range 1-165; also called VEGF1-165
The experiment in a line: competition binding ELISA: biotinylated VEGF165 premixed with the binder, then on coated VEGFR1-Fc (blocked partner), OD 450 nm.

Experiment [6] has as its target T3, biotinylated VEGF165. The experiment in a line: competition binding ELISA: blocks biotinylated VEGF165 binding to coated VEGFR1-Fc. A general note: ELISA stands for enzyme-linked immunosorbent assay.
For experiment [7], the target named is LRP6 on HEK293S cells (human, UniProt O75581 20-1613). The experiment in a line: cell-based or functional assay.
In experiment [8] the target is T1, LRP6 E1E2 with a C-terminal Avi-tag and …. Briefly: BLI (OctetRED384), monomeric variant.
The target is the same in experiment [9]. The experiment in a line: biolayer interferometry (OctetRED384), fitting view of five traces, LRP6-E1E2.
Protocol: Binding affinities of chagasin variants for the targets LRP6 and VEGF109 were measured using the OctetRED384 (ForteBio). All washes, dilutions and measurements were performed in PBS-based kinetics buffer (ForteBio) with the plate shaking at 1000 rpm. Streptavidin biosensors (SA tips, ForteBio) were equilibrated in kinetics buffer for 5 min and then loaded with either biotinylated LRP6-E1E2 or biotinylated VEGF109 (20 μg/ml) to a density of 2 nm signal difference, followed by a 3 min washing step. […] Dissociation of the chagasin variant-target complex was measured in wells containing kinetics buffer alone for up to 30 min. Sensorgrams with ligand-loaded SA tips going through wells containing only buffer in both association and dissociation measurement were used as reference for background subtraction. Kd, kₐ and kd were determined using the Octet evaluation software v7.0.1.3. using a 1:1 binding model with global fitting. Alternatively, AMC-biosensors (Fortebio) were loaded with StrepMAB-Immo (IBA GmbH) to saturation and subsequently used to capture Strep-tag II containing chagasin variants to saturation. After 5 min of washing in kinetics buffer, binding kinetics to unlabeled LRP6-E1E2 fragment was determined essentially as described above.
Experiment [10] addresses T4, VEGF109 (UniProt P15692 214-315, biotinylated where loaded on streptavidin tips).
T4 construct: range 8-109; also called VEGF8-109; biotinylated VEGF109
T4 sequence: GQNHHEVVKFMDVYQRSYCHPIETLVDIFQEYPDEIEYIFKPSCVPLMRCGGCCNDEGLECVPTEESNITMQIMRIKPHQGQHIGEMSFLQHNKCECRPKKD
The experiment in a line: BLI (OctetRED384): biotinylated VEGF109 on SA sensor tips.

Experiment [11] deals with T2, human VEGF. The experiment in a line: cell-based or functional assay. This is another data set of the same source.
Experiment [12] concerns the target T4, VEGF109. The experiment in a line: BLI (OctetRED384): biotinylated VEGF109 on tips.
The target in experiment [13] is T4, VEGF109. Briefly: BLI (OctetRED384): biotinylated VEGF109 on tips, monomeric variant in solution.
For experiment [14], the target named is T4, VEGF109.

T2 sequence (P15692 other isoform, or with tags, fused parts or gaps limits assumed): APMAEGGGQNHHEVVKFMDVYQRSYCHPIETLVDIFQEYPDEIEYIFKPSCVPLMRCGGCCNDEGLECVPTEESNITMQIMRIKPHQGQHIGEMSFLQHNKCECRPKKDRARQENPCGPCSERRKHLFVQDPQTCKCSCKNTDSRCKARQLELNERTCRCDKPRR
T3 sequence (P15692 other isoform, or with tags, fused parts or gaps limits assumed): as above

B1: chagasin LRP6 variant S15 (designed binder)
chain: MSHKVTKAHNGATLTVAVGELVEIQLPSNADGFAWYFEGGTKESPNESMFTVENKYFPSNSTKRGAGGTEHFHVTVKAAGTHAVNLTYMRREKGSTLVVERFTVYLKAN
modifications: biotinylated at the Avi-tag (BirA)
notes: not shown: C-terminal His6-tag and Avi-tag (ExiProgen small-scale expression)
In the case of B1, in [1], the binding result is recorded as “binds”.

B2: GST-fused chagasin VEGF variant 4-66-F6 (designed binder)
chain: MSHKVTKAHNGATLTVAVGELVEIQLPSNYFYDGFAWYFEGGTKESPNESMFTVENKYFPNDPGSRLSGAGGTEHFHVTVKAAGTHAVNLTYMAPWLGPSRVLERFTVYLKAN
notes: also called GST-Variant 4; variant 4 as a GST-fusion protein; not shown: N-terminal His6-GST-tag and TEV cleavage site (pET52b backbone)
Consider B2, for which, in experiment [2], the “IC50, inhibition of VEGF-dependent KDR phosphorylation on KDR-expressing CHO cells” value amounted to 72 nM. Further, the entries for the “Inhibitory activity (IC50, nM) against VEGF in cell-based assays” value in experiment [3] and in [4] were 28 nM and 73 nM, respectively. The IC50 in [5] was 14 nM; in experiment [6], 13 nM.

B3: chagasin LRP6 variant H2 (designed binder)
chain: MSHKVTKAHNGATLTVAVGELVEIQLPSNPQTGFAWYFEGGTKESPNESMFTVENKYFPSNKVKGVPGFGAGGTEHFHVTVKAAGTHAVNLTYMGPWTGASQEPERFTVYLKAN
notes: also called clone H2
B3: the “IC50, inhibition of Wnt1 signaling (luciferase reporter, HEK293S cells transfected by WNT1)” value in [7] was 31 nM. Moreover, the figures for the dissociation constant (Kd) in [8] and in [9] were 0.4 nM and 0.39 nM, respectively.

B4: chagasin VEGF variant 66 (designed binder)
chain: MSHKVTKAHNGATLTVAVGELVEIQLPSNYYYDGFAWYFEGGTKESPNESMFTVENKYFPHYYNLGGRYTGAGGTEHFHVTVKAAGTHAVNLTYMGPWLGPSRVLERFTVYLKAN
notes: also called clone 66; not shown: C-terminal His6-tag and Avi-tag of the ExiProgen small-scale expression
Take B4: the binding result in experiment [10] is “binds”.

B5: monomeric chagasin VEGF variant L4X6-7 (designed binder)
chain: MSHKVTKAHNGATLTVAVGELVEIQLPSNYFREGFAWYFEGGTKESPNESMFTVENKYFPHVQWGWGAGGTEHFHVTVKAAGTHAVNLTYMAPWVGPSRELERFTVYLKAN
In the case of B5, the “Inhibitory Activity (IC50, nM) against hVEGF in cell-based assays” value in experiment [11] was found to be 65 nM. The “fold improvement of IC50 over the parental chagasin variant 4” value in experiment [2] came out at 13 fold. The “fold improvement of Kd over the parental variant 4” value in [12] worked out at 2.5 fold. For the same molecule, the results for the Kd in experiment [13] and in experiment [14] were 150 nM and 160 nM, respectively.
